Article PMC9817077, “Simple, Reliable Protocol for High-Yield Solubilization of Seedless Amyloid-β Monomer” (ACS Chemical Neuroscience, 2022)

What was measured:
[1] = AF4-MALS fractionation of re-solubilized samples; format: physicochemical
Method: Samples were analyzed using an AF4 frit inlet (FI) channel equilibrated in 1 mM NaOH, with a 250 μm spacer and a 1 kDa PES membrane, and in-line UV (280 nm; Shimadzu, U.K.), MALS, and RI detectors. Except where otherwise stated, the channel, associated pumps, autosampler, and detectors were purchased or loaned from Postnova Analytics (Landsberg am Lech, Germany). The RI detector was purged following equilibration, and the UV and RI detectors were then zeroed. […] The sample was separated in a 1 mM NaOH mobile phase, with 0.2 mL/min TIP and detector flow; the focus and cross-flow rates were also matched to one another and varied throughout the run.
Data processing and estimation of sample concentration, molecular weight, and recovery were carried out in the AF2000 Control software (Postnova Analytics, Landsberg am Lech, Germany), with additional data processing in GraphPad Prism version 8.3.0. […] We note that, although there is an isosbestic point nearby at 276 nm, the relatively rapid decrease in tyrosine absorbance and increase in tyrosinate absorbance to the right of this point mean that deprotonation still has a significant effect on the extinction coefficient at 280 nm. […] As a result, the tyrosine/tyrosinate extinction coefficient is more appropriate for analysis of the monomer and oligomer fractions in our AF4-MALS runs. Molecular weight values were calculated by fitting models to the UV280 and MALS signals. The molecular weights in Figure 2e were obtained using a fourth-degree Berry fit from 2.0 to 7.0 min, a linear Zimm fit from 7.0 to 12.5 min, and a third-degree Berry fit from 28.0 to 50.0 min. The molecular weights in Figure 3c were obtained using a linear Zimm fit. […] This summation tends toward an exact integral as Δt → 0, and the experimental parameter of Δt = 0.12 min was sufficiently small for the approximation to be reasonably accurate. The probability density function p(M), which gives the probability density of species with mass M, can be calculated as p(M) = dP(Mw ≤ M)/dM. However, when presenting the data on a logarithmic axis, peaks in the probability density function are horizontally stretched at low M and horizontally compressed at high M, meaning that the peak area is no longer proportional to the mass of material.

[2] = Storage stability at −80 °C (ThT half-time against storage time); format: physicochemical
Excerpt: To more quantitatively assess this stability, the mean fibrillization half-time τhalf of each ThT experiment was plotted against the storage time of the corresponding aliquot.
Each point corresponds to the average fibrillization half-time of a single ThT experiment; the error bars, which in some cases are too small to show, represent a single standard deviation. The fitted curve is an exponential decay of the form τhalf = τhalf^′e^–kmodt, where τhalf is the self-assembly half-time, τhalf^′ is the half-time prior to the effects of storage, kmod is the proportional rate of change of τhalf during storage, and t is the storage time. See text for values of the fitted parameters and Table S2 for the correspondence between the color scheme and sample ID.

[3] = 50 mM NaOH, 20 μg injected, mean ± SD
[4] = 50 mM NaOH, geometric average Mw elugram, ROI 3.3–20.0 min
[5] = 5 min sonication in 50 mM NaOH (pH ≈ 12.5), 20 μg injected, 1 mM NaOH mobile phase, UV280, mean ± SD, n = 12
[6] = re-solubilized in 10 mM NaOH without HFIP, 20 μg injected, 1 mM NaOH mobile phase, UV280, mean ± SD

Aβ(1-42): Ultrapure recombinant Aβ(1-42) purchased from rPeptide, lyophilized from HFIP; disordered amyloid-forming peptide
material eluting in peak 2 ([1]; 10 mM NaOH preparations with higher pH (≳10.0) after re-solubilization, 20 μg injected, mean ± SD): 18.30 ± 1.17 µg
material eluting in peak 2 ([1]; 10 mM NaOH preparations with more neutral pH (≲8.0) after re-solubilization, 20 μg injected, mean ± SD): 7.62 ± 2.20 µg
recovery in peak 1 ([1]; 10 mM NaOH preparations, more neutral samples (≲8.0), 20 μg injected, mean ± SD): 6.32 ± 6.62 µg
fraction of sample eluting in peak 3 ([1]; 10 mM NaOH, relative to injected mass of 20 μg, ± SD): ~11 ± 5%
recovery from the first two regions of interest (1.5–30.0 min) [1, 3]: 19.90 ± 0.99 µg
total recovery across all three regions of interest [1, 3]: 20.62 ± 1.19 µg
sample eluting in fractions suggestive of dimer or larger [1, 4]: 12%
sample eluting in fractions with Mw closer to the monomer [1, 4]: 88%
Mw of eluting material from 4.0 to 5.0 min ([1]; 50 mM NaOH, geometric mean of 10 concordant Mw elugrams, linear Zimm fit): ~4500 Da
major peak of the molecular weight distribution ([1]; 50 mM NaOH, sample eluting 3.3–20.0 min, from average elugram and UV280): ~4500 Da
material eluting in the peak 1 region (1.5–3.3 min) [1, 5]: 0.31 ± 0.17 µg
material eluting in the peak 2 region (3.3–30.0 min) [1, 5]: 19.59 ± 0.90 µg
material eluting in the peak 3 region (>30 min), nominal [1, 5]: 0.72 ± 0.32 µg
material eluting in peak 1 (1.5–3.3 min) [1, 6]: 3.99 ± 5.92 µg
material eluting in peak 2 (3.3–30.0 min), monomer and small oligomer [1, 6]: 11.73 ± 5.70 µg
material eluting in peak 3 (30.0–60.0 min) [1, 6]: 2.11 ± 0.95 µg
total material eluted in the AF4 run ([1]; re-solubilized in 10 mM NaOH, 20 μg injected, mean ± SD): 17.82 ± 6.68 µg
period of stability at −80 °C ([2]; 5 min sonication in 50 mM NaOH, frozen in liquid N2): over 39 days
rate constant kmod of decay of the self-assembly half-time during storage ([2]; 5 min sonication in 50 mM NaOH, stored at −80 °C for 1 to 39 days, exponential fit, not significantly different from 0 (P = 0.3011)): 6.53 × 10^–4 day^–1
time constant τmod ([2]; storage at −80 °C, from exponential fit): 1530 days
